In patent US20150368338A1 (Janssen / Centocor, published 2015):
Positions count from the first letter of the chain named.

T1: IFN-αF (human, UniProt P01568 24-189)
T1 construct: also called IFN-α21; alpha F
T1 chain: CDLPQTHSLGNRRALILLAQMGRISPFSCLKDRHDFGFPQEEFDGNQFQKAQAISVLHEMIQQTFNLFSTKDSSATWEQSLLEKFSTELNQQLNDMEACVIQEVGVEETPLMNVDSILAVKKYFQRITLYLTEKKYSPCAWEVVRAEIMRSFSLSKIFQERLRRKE

B1: IFWM3349 (antibody, V domains shown)
VH: EVQLVQSGAEVKKPGESLKISCKGSGYSFTSYWIGWVRQMPGKGLEWMGIIDPSDSDTAYSPSFQGQVTISADKSISTAYLQWSSLKASDTAMYYCARHPGLNWAPDFDYWGQGTLVTVSS
VL: DIQMTQSPSSLSASVGDRVTITCRASQSIGKSLNWYQQKPGKAPKLLIYFASSLQSGVPSRFSGSGSGTDFTLTISSLQPEDFATYYCQQSYDFPLTFGQGTKVEIK
notes: VH IFWH624, VL IFWL1007; converted mAb; also called IFWB3084
B2: IFWM3329 (antibody, V domains shown)
VH: B1 VH with A59R
VL: DIQMTQSPSSLSASVGDRVTITCRASQSIRNNNLNWYQQKPGKAPKLLIHWASSLQSGVPSRFSGSGSGTDFTLTISSLQPEDFATYYCQQGYDTPFTFGQGTKVEIK
notes: VH IFWH591, VL IFWL1067; converted mAb; also called IFWB3064
B3: IFWM3358 (antibody, V domains shown)
VH: B1 VH
VL: B1 VL with G30T, K31G, S32F, F50A, Y92H
notes: VH IFWH624, VL IFWL1041; converted mAb; also called IFWB3093
B4: IFWM3359 (antibody, V domains shown)
VH: B1 VH
VL: B1 VL with G30N, K31G, S32V, Y92H
notes: VH IFWH624, VL IFWL1047; converted mAb; also called IFWB3094
B5: IFWM3331 (antibody, V domains shown)
VH: B1 VH with A59R
VL: B2 VL with R30D, N32S, N33Y, H50Y, W51G, Y93W, T95W, F97L
notes: VH IFWH591, VL IFWL1073; converted mAb; also called IFWB3066
B6: IFWM3357 (antibody, V domains shown)
VH: B1 VH
VL: B1 VL with G30S, K31E, S32Y, Y92H, D93S, F94L, L96I
notes: VH IFWH624, VL IFWL1038; converted mAb; also called IFWB3092
B7: IFWM3353 (antibody, V domains shown)
VH: B1 VH
VL: B1 VL with G30D, K31R, S32A, Y92F
notes: VH IFWH624, VL IFWL1014; converted mAb; also called IFWB3088
B8: IFWM3352 (antibody, V domains shown)
VH: B1 VH
VL: B1 VL with G30N, K31N, S32F, Y92F, D93N, F94L, L96I
notes: VH IFWH624, VL IFWL1013; converted mAb; also called IFWB3087
B9: IFWM3327 (antibody, V domains shown)
VH: B1 VH with A59R
VL: B2 VL with R30A
notes: VH IFWH591, VL IFWL1063; converted mAb; also called IFWB3062
B10: IFWM3350 (antibody, V domains shown)
VH: B1 VH
VL: B1 VL with G30D, K31D, S32F, Y92H, D93T, F94L
notes: VH IFWH624, VL IFWL1009; converted mAb; also called IFWB3085
B11: IFWM3364 (antibody, V domains shown)
VH: B1 VH
VL: B1 VL with G30R, K31N, Y49K, F50W, S91L, F94W
notes: VH IFWH624, VL IFWL1060; converted mAb; also called IFWB3099
B12: IFWM3360 (antibody, V domains shown)
VH: B1 VH
VL: B1 VL with G30D, K31G, S32A, S91A
notes: VH IFWH624, VL IFWL1048; converted mAb; also called IFWB3095
B13: IFWM3361 (antibody, V domains shown)
VH: B1 VH
VL: B1 VL with G30A, K31D, S32F, Y92H, D93S
notes: VH IFWH624, VL IFWL1051; converted mAb; also called IFWB3096
B14: IFWM3354 (antibody, V domains shown)
VH: B1 VH
VL: B1 VL with G30T, K31S, Y92F, F94L
notes: VH IFWH624, VL IFWL1017; converted mAb; also called IFWB3089
B15: IFWM3351 (antibody, V domains shown)
VH: B1 VH
VL: B1 VL with G30D, K31G, S32A, Y92F
notes: VH IFWH624, VL IFWL1010; converted mAb; also called IFWB3086
B16: IFWM3355 (antibody, V domains shown)
VH: B1 VH
VL: B1 VL with G30N, K31E, S32F, D93S, F94T
notes: VH IFWH624, VL IFWL1022; converted mAb; also called IFWB3090

Molecular target: T1, IFN-αF
Test: ProteOn, one antigen concentration

| Kd | Binder |
| --- | --- |
| 0.052 nM | B1 |
| 0.051 nM | B2 |
| 0.047 nM | B3 |
| 0.053 nM | B4 |
| 0.013 nM | B5 |
| 0.039 nM | B6 |
| 0.055 nM | B7 |
| 0.152 nM | B8 |
| 0.035 nM | B9 |
| 0.054 nM | B10 |
| 0.109 nM | B11 |
| 0.049 nM | B12 |
| 0.135 nM | B13 |
| 0.032 nM | B14 |
| 0.053 nM | B15 |
| 0.052 nM | B16 |

These binders were tested against T2, IFN-αG (human, UniProt P01569 24-189) (assay: ProteOn, one antigen concentration).
T2 construct: also called IFN-α5; alpha G

| Kd | Binder |
| --- | --- |
| 0.065 nM | B1 |
| 0.061 nM | B2 |
| 0.048 nM | B3 |
| 0.04 nM | B4 |
| 0.015 nM | B5 |
| 0.014 nM | B6 |
| 0.016 nM | B7 |
| 0.09 nM | B8 |
| 0.035 nM | B9 |
| 0.098 nM | B10 |
| 0.08 nM | B11 |
| 0.043 nM | B12 |
| 0.066 nM | B13 |
| 0.043 nM | B14 |
| 0.015 nM | B15 |
| 0.06 nM | B16 |

Each binder was assayed against T3, IFN-αWA (human, UniProt P05015 24-189) (assay: ProteOn, one antigen concentration).
T3 construct: also called IFN-α16; alpha WA

| Kd | Binder |
| --- | --- |
| 0.102 nM | B1 |
| 0.173 nM | B2 |
| 0.123 nM | B3 |
| 0.051 nM | B4 |
| 0.026 nM | B5 |
| 0.037 nM | B6 |
| 0.031 nM | B7 |
| 0.087 nM | B8 |
| 0.106 nM | B9 |
| 0.066 nM | B10 |
| 0.118 nM | B11 |
| 0.061 nM | B12 |
| 0.098 nM | B13 |
| 0.052 nM | B14 |
| 0.033 nM | B15 |
| 0.041 nM | B16 |

What follows are binders tested against T4, IFN-αC (human, UniProt P01566 24-189) (assay: ProteOn, one antigen concentration).
T4 construct: also called IFN-α10; alpha C

| Kd | Binder |
| --- | --- |
| 0.056 nM | B1 |
| 0.05 nM | B2 |
| 0.054 nM | B3 |
| 0.041 nM | B4 |
| 0.012 nM | B5 |
| 0.023 nM | B6 |
| 0.054 nM | B7 |
| 0.121 nM | B8 |
| 0.034 nM | B9 |
| 0.057 nM | B10 |
| 0.093 nM | B11 |
| 0.056 nM | B12 |
| 0.101 nM | B13 |
| 0.043 nM | B14 |
| 0.048 nM | B15 |
| 0.055 nM | B16 |

These binders were tested against T5, IFN-αJ1 (human, UniProt P01567 24-189) (assay: ProteOn, one antigen concentration).
T5 construct: also called IFN-α7; alpha J1

| Kd | Binder |
| --- | --- |
| 0.123 nM | B1 |
| 0.166 nM | B2 |
| 0.223 nM | B3 |
| 0.136 nM | B4 |
| 0.072 nM | B5 |
| 0.13 nM | B6 |
| 0.095 nM | B7 |
| 0.287 nM | B8 |
| 0.113 nM | B9 |
| 0.055 nM | B10 |
| 0.254 nM | B11 |
| 0.174 nM | B12 |
| 0.388 nM | B13 |
| 0.098 nM | B14 |
| 0.14 nM | B15 |
| 0.079 nM | B16 |

These binders were tested against T6, human IFN-ω (human, UniProt P05000 24-195) (assay: ProteOn, one antigen concentration).
T6 construct: also called interferon omega

| Kd | Binder |
| --- | --- |
| 0.007 nM | B1 |
| 0.059 nM | B2 |
| 0.018 nM | B3 |
| 0.021 nM | B4 |
| 0.015 nM | B5 |
| 0.004 nM | B6 |
| 0.006 nM | B7 |
| 0.06 nM | B8 |
| 0.039 nM | B9 |
| 0.02 nM | B10 |
| 0.013 nM | B11 |
| 0.025 nM | B12 |
| 0.03 nM | B13 |
| 0.017 nM | B14 |
| 0.004 nM | B15 |
| 0.026 nM | B16 |

Each binder was assayed against T7, IFN-α4a (human, UniProt P05014 24-189) (assay: ProteOn, one antigen concentration).
T7 construct: also called IFN-αM1

| Kd | Binder |
| --- | --- |
| 0.174 nM | B1 |
| 0.258 nM | B2 |
| 0.319 nM | B3 |
| 0.147 nM | B4 |
| 0.085 nM | B5 |
| 0.17 nM | B6 |
| 0.11 nM | B7 |
| 0.267 nM | B8 |
| 0.164 nM | B9 |
| 0.161 nM | B10 |
| 0.269 nM | B11 |
| 0.233 nM | B12 |
| 0.622 nM | B13 |
| 0.123 nM | B14 |
| 0.113 nM | B15 |
| 0.122 nM | B16 |
